This note sets out measurements from the supplement of paper PMC12042874.

± gives the uncertainty stated by the source.

This data set in a line: amyloid nucleation score (Sup35N fusion, yeast selection) (log enrichment); library NNK1; higher = more nucleation; inactive = no reads after selection. The gist of the method: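 In psi-negative yeast, Sup35N fusions carrying peptides of 20 random codons were induced with 100 μM copper sulfate for 24 hours. The cells then grew 7 days at 30°C on medium lacking adenine and uracil, and plasmid inserts from input and output were Illumina-sequenced, excluding sequences with under 100 input reads. Nucleation score is the DiMSum log enrichment of output over input reads, centred on the mode score of non-aggregating sequences.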
As for AWFGYISYWNEFFLWDCFWS, the amyloid nucleation score was -0.366 ± 0.4. AWKKFSWDRLSKP: the amyloid nucleation score was determined as 5.16 ± 0.072. Consider AWMSRIVNNPGSNTFSRQWL, for which the amyloid nucleation score was -0.284 ± 0.71. In turn, AWVYSYSRSILMWGVTGLWV displayed an amyloid nucleation score of 0.77 ± 0.61. In the case of AYFRGRVNFSLTFLAYT, the amyloid nucleation score is -0.098 ± 0.56.

AYNLNLYNRCQVLMLISSTR had an amyloid nucleation score of 4.91 ± 0.048. In the case of AYNVVHSSLGTKGVRGSCAT, the amyloid nucleation score was -0.74 ± 1.7. CAGWFRTFGAYKDAMARLAR: the amyloid nucleation score entry was “inactive”. On to CARNNHELVNYFKAFIPVVA, for which the amyloid nucleation score worked out at 0.751 ± 0.43.

For the substance CASRNCGNYVK, the amyloid nucleation score entry was “inactive”. The substance CAVHYKLCDLYHT returned an amyloid nucleation score of 0.381 ± 0.5. As for CAVVVGVSGGAHEGVGKTKY, the figure is -0.35 ± 0.45. As for CCFNYKSPWSMWFNLRLSNP, the figure is 5.06 ± 0.071; as for CCIMSRIGTCLWVEWRWCRG, 0.243 ± 0.39; as for CCQSFLLKSPSYRAMAFIWW, -0.929 ± 0.33. On to CCWNNSLS, for which the amyloid nucleation score entry was “inactive”. Turning to CCYWMASALENRSRRIRLHV, the amyloid nucleation score was -0.612 ± 0.84. For the substance CDCTNT, the amyloid nucleation score was -0.78 ± 1.4. As for CDSYSKMPPGRNILVCQFCW, the amyloid nucleation score was found to be 2.15 ± 0.11. CEWFPRHKMYLESVFVYKRL registered an amyloid nucleation score of -0.116 ± 0.56. CFCKGGPVVTRMWEGIYPC registered an amyloid nucleation score of -0.014 ± 0.27. In turn, CFGFFVWANHAYHAQRCVAS showed an amyloid nucleation score of 1.29 ± 0.33. As for CFGRRRVRIELGTAWPFSVL, the figure is -0.754 ± 1.1; as for CFGSSRVSCEYTDDRDDCGM, “inactive”.

In turn, CFKGF had an amyloid nucleation score of 0.946 ± 0.49. CFNLALLRVLAGTKLYSFMG displayed an amyloid nucleation score of 0.64 ± 0.35. CFSRHAICT came in with an amyloid nucleation score of -0.863 ± 0.88. In turn, CFVGYQW came in with an amyloid nucleation score of 0.622 ± 0.63. CFVVAWCKTITV returned an amyloid nucleation score of 1.02 ± 0.66.

For the substance CFVVVCLFMKA, the amyloid nucleation score result is “inactive”. CFWVEMFFSETHMIKNYCIV: the amyloid nucleation score was 1.27 ± 0.61. The substance CGALWALKV displayed an amyloid nucleation score of -1.04 ± 0.78.

On to CGCETDMGSA, for which the amyloid nucleation score result was “inactive”. The substance CGDGPHHVLCLSVVDICVGC yielded an amyloid nucleation score of -1.04 ± 1.6. As for CGDKNILTRIWLERVSVLAS, the figure is 0.056 ± 0.33. As for CGDMWLTDSLHGMNCSLFRR, the amyloid nucleation score entry is “inactive”. For CGKSIEETSLRNPIPGNVLG, the amyloid nucleation score was 0.476 ± 0.55. As for CGMMVSEGSVSCRSLPIYLA, the figure is 0.275 ± 0.34; as for CGYCD, -1.69 ± 2.4. CHCNL yielded an amyloid nucleation score of 1.81 ± 0.38. As for CHGCLGG, the figure is -0.312 ± 1.5.

On to CHGKESRTVREVHDLLVYVS, for which the amyloid nucleation score was -0.408 ± 0.78.

In turn, CHLNFMCWPTAQDENMPIFG returned an amyloid nucleation score of -0.09 ± 0.31.

Turning to CHVIIVQRYFMSVTLSQCWW, the amyloid nucleation score was determined as 0.489 ± 0.24. Turning to CHWSCRSEVMPESVTDAGGW, the amyloid nucleation score was -0.072 ± 0.67. Take CIDDFSNFVRNVGAFGEYSF: the amyloid nucleation score was -0.752 ± 0.53. CIIMCLRSDPV came in with an amyloid nucleation score of 0.211 ± 0.3. Take CIIVNMFYWALFYFGSEMFS: the amyloid nucleation score worked out at 0.738 ± 0.53. For CIKNSLRRYMCAYFSWGRRG, the amyloid nucleation score was -0.744 ± 1.2.

Regarding CIMMRHMVSYEADLRTMFLN, the amyloid nucleation score was found to be 3.58 ± 0.18. As for CIRMVRGSTGSTVNMSSRCS, the figure is 0.347 ± 0.27. As for CISLTCVVYGSML, the figure is 7.213 ± 0.048. As for CITTVPHQPMVLWTICFPTM, the figure is 0.614 ± 0.95; as for CKSGDLSECCRIWHRWA, 0.048 ± 0.27; as for CKVLCYIAYTWNLDCTEFEG, 6.449 ± 0.063.

Consider CLAFQLDWLRMGLFKSMEGT, for which the amyloid nucleation score was -0.384 ± 0.35. As to CLEVGFVCWNCNRLFKCLCQ, the amyloid nucleation score is 1.1 ± 0.56. In the case of CLFSWD, the amyloid nucleation score came to 0.118 ± 0.3. CLGYGYSSEDTQTSLCSGVE returned an amyloid nucleation score of -0.642 ± 1.

With CLILTRCVSYGRPMTACLVL, the amyloid nucleation score amounted to 0.16 ± 0.56.

On to CLKLDNMTRLVTNGTLGSAS, for which the amyloid nucleation score entry is “inactive”.

In turn, CLLLVMTVTGGGSVTMLSQM showed an amyloid nucleation score of -0.078 ± 0.32. Substance CLNWVCRRFWVSITHFWAWV came in with an amyloid nucleation score of 0.066 ± 0.51.

Take CLQFSVEARRLLKLNVGALE: the amyloid nucleation score is 2.29 ± 0.13.

Consider CLQWPEYPDYSVGGAFRRTG, for which the amyloid nucleation score is -0.311 ± 0.48. Consider CLVHVRVSHNWDVTMMFGVR, for which the amyloid nucleation score was 0.555 ± 0.24.

With CLYICIMGRIDAISSHSQII, the amyloid nucleation score is 0.453 ± 0.43. CLYPVLQVPMCGNMAERQGV came in with an amyloid nucleation score of 0.074 ± 0.69.

As for CMILFTNRQRVMRLVLCLSD, the amyloid nucleation score was found to be 0.044 ± 0.49. As for CMYALT, the amyloid nucleation score turned out to be 0.015 ± 0.39. The substance CNLIYCTFDYLNFWDYYTID displayed an amyloid nucleation score of 6.64 ± 0.054. CNLSNVSLLFRYELLISGSY returned an amyloid nucleation score of 0.748 ± 0.35. For the substance CNRPGF, the amyloid nucleation score was -0.249 ± 0.44. As for CNWPDLDLSNRKWNPMKSML, the figure is 0.146 ± 0.69; as for CNYSSSTVGYRSDMRVCSDT, 0.405 ± 0.61; as for CPITWNFLCGIVLIEYYRVV, 7.04 ± 0.087. On to CPWTVMLHFSYDYCARGFKV, for which the amyloid nucleation score was -0.505 ± 0.57. The substance CQDGLDNLNCGAMVYFVVGD yielded an amyloid nucleation score of 2.25 ± 0.22. For the substance CQISI, the amyloid nucleation score was -2.17 ± 2.4.

As to CQSKYYIMRACCFMATLWYW, the amyloid nucleation score was -0.475 ± 0.47. CQYVFVCRHFFLGKNHEALE gave an amyloid nucleation score of -0.462 ± 0.86. Take CRCTVNHVMVRLSRGCRDAH: the amyloid nucleation score entry was “inactive”.

For CRLCLRKHLSVISSSAEYLP, the amyloid nucleation score result was “inactive”. In turn, CRSSHE came in with an amyloid nucleation score of 0.109 ± 1.4. With CRSVCGRIS, the amyloid nucleation score worked out at 0.177 ± 0.77. The substance CRSYNYLIVMKDLLPSALKT showed an amyloid nucleation score of 1.23 ± 0.36. CRYFSSSSGEAGQIFVVICG displayed an amyloid nucleation score of -0.201 ± 0.67. Consider CRYSACAKRMSSFCRVRMCL, for which the amyloid nucleation score is 0.194 ± 0.66. CRYYRCSQKLDKLVTFTKKS had an amyloid nucleation score of 0.722 ± 0.49. CSCYAM registered an amyloid nucleation score of 3.25 ± 0.19.

For the substance CSCYQALKLA, the amyloid nucleation score was -0.49 ± 0.88. CSDCARIGLMSRCGDETW had an amyloid nucleation score of 0.132 ± 0.28.

As to CSDRVKTLSFCWSPSVVFW, the amyloid nucleation score is -0.636 ± 0.95. Substance CSFGQIPCNLDQTGLLRARG displayed an amyloid nucleation score of 1.1 ± 0.55. CSFLRFQIVMCCRLLDRVLC displayed an amyloid nucleation score of 1.72 ± 0.63. As for CSFMCLARLVSYQIESLW, the figure is -0.062 ± 1.2; as for CSGCYPRLCESMLNGNSGYV, 1.31 ± 0.31; as for CSGMMARPWIYLVGVYKISN, 2.26 ± 0.17. Consider CSKRTTYYFPWFICELTRLV, for which the amyloid nucleation score is -0.195 ± 0.6.

As for CSNLQLAHKRRISNWSNLWC, the amyloid nucleation score was -0.029 ± 0.98. As to CSSVAS, the amyloid nucleation score is 0.113 ± 0.31. In turn, CSYDNVPDLFC showed an amyloid nucleation score of 0.582 ± 0.68.

Substance CSYQNCLVN displayed an amyloid nucleation score of -0.795 ± 0.29. Regarding CTIILL, the amyloid nucleation score was determined as 2.78 ± 0.14. CTNATVPASSTERV came in with an amyloid nucleation score of 1.55 ± 0.5.

For CTSCQYKCNCWGCVRYQTWF, the amyloid nucleation score was determined as 2.41 ± 0.27. On to CTSPLVLIHKYYYVMVAVHS, for which the amyloid nucleation score is 0.821 ± 0.55. CTVKLLMCQAISLTCSLGFF displayed an amyloid nucleation score of 0.534 ± 0.56. CTVLRRFIRYHTITVYMWL: the amyloid nucleation score worked out at 0.257 ± 0.75. The substance CVAWNIDW registered an amyloid nucleation score of 0.069 ± 0.76. In turn, CVFGYCVALHF returned an amyloid nucleation score of 6.18 ± 0.073.

Substance CVFRSYWVCLWSDNNGDVR displayed an amyloid nucleation score of 8.325 ± 0.07. For CVGSIKVNSLSRLFCHLLCV, the amyloid nucleation score was -0.187 ± 1.2. For CVGVWVRFLTQQCSTHKQYE, the amyloid nucleation score is -0.116 ± 1.2. In turn, CVHYLYEILQGILLNYSFLL registered an amyloid nucleation score of -0.737 ± 0.4.

CVLPFGLSSG had an amyloid nucleation score of 0.483 ± 0.48.

On to CVNFFGCHCVHN, for which the amyloid nucleation score is 7.735 ± 0.069. CVSCVSGILFEMCPSSFPNQ yielded an amyloid nucleation score of -0.578 ± 0.9. As for CVTANRHDENITSLLWRIVQ, the figure is -2.36 ± 2.4; as for CVVWAEVRVR, -0.419 ± 0.79; as for CVWFFLFPVQAITLFDLESV, -0.033 ± 0.74. CVYVSMLH: the amyloid nucleation score was -0.483 ± 0.85.

Take CWTSFYDC: the amyloid nucleation score is 0.448 ± 0.49. As for CYALNWCRLPALHSFFQCRK, the figure is 0.853 ± 0.65; as for CYAPSFWTYWCLCSCMVDPN, 5.8 ± 0.081; as for CYDQKILLLLISVTYVRTSD, -0.34 ± 1. In turn, CYFCYQGYMID returned an amyloid nucleation score of -0.537 ± 0.33. Regarding CYLCSSSF, the amyloid nucleation score was 1.67 ± 0.24.

Substance CYLSNLAMSHSCMHYALTAA registered an amyloid nucleation score of -0.713 ± 1.4. CYMYFWNRVDFT had an amyloid nucleation score of 0.581 ± 0.17. As to CYRPFSQNLPSVMLEFILAE, the amyloid nucleation score was found to be 0.146 ± 0.27. CYSKKVLHCFKTSCLTLQVT had an amyloid nucleation score of 1.27 ± 0.42. As for CYVHEFMDEPSRSNGDGVWC, the amyloid nucleation score was -0.512 ± 1.2. Substance CYYLFLHSCSYARGIFC showed an amyloid nucleation score of -0.366 ± 0.52. Substance DAADMTGLFNRLLCVFEYVW registered an amyloid nucleation score of 0.797 ± 0.66. DAASHYINLCNHSAEFSKVG had an amyloid nucleation score of 1.42 ± 0.53. Turning to DAGMH, the amyloid nucleation score worked out at 0.189 ± 0.3. Regarding DAHAISINHYRLSQTLSVPW, the amyloid nucleation score was -0.148 ± 0.35. DAILLHYSNDMLYSYYRRVG displayed an amyloid nucleation score of -0.937 ± 0.65.

Turning to DALWKVFKDWLGGADQRGFP, the amyloid nucleation score was determined as 0.29 ± 0.78.
